{"source": "paper PMC11046700", "about": "(Proceedings of the National Academy of Sciences of the …, 2024)", "proteins": {"B1": {"name": "mouse WT-APOA5 (mouse apolipoprotein AV with an N-terminal mouse albumin tag) (natural protein, UniProt Q8C7G5 21-368, looked up)", "chain": "RKSLWDYFSQNSWSKGVMGQPQKLAQENLKGSFEQDLYNMNNYLEKLGPLRGPGKEPPLLAQDPEGIRKQLQQELGEVSSRLEPYMAAKHQQVGWNLEGLRQQLKPYTAELMEQVGLSVQELQEQLRVVGEDTKAQLLGGVDEALNLLQDMQSRVLHHTDRVKELFHPYAERLVTGIGHHVQELHRSVAPHAAASPARLSRCVQTLSHKLTRKAKDLHTSIQRNLDQLRDELSAFIRVSTDGAEDGDSLDPQALSEEVRQRLQAFRHDTYLQIAAFTQAIDQETEEIQHQLAPPPPSHSAFAPELGHSDSNKALSRLQSRLDDLWEDIAYGLQDQGHSHLSDPEGHSG"}}, "biological_target": "the molecule itself", "assay": "SEC", "data": [{"protein": "B1", "values": [{"measurement": "stoichiometry N", "value": 2}]}]}
